This is an account of results in the DeepSol protein solubility set.

This data set in a line: soluble on expression in E. coli; label from the status in PepcDB or PDB records.
“MSTEPQFENPFIDRQLDGSKIHEISGHRFKATALVQPTCCAICSKLIYGLGKQGYRCLGCETVVHKRCHSLINDRCNFGPSSPRQPPPQELSSDSGELRHRIPSPTEPQVSTNHHFNKHFYTRPTFCDHCGSLLYGLSKQGVQCSDCLANVHHRCKEKAVHNCIVSSQ”: the “soluble on expression in E. coli” value was “not soluble”. As for “MSTHEKLLTADNPVLHQRAKAMRQEMSEAEAKLWQHLRAGRLNGYKFRRQQPMGNYIVDFMCVTPKLIVEADGGQHAEQAVYDHARTAYLNSLGFTVLRFWNHEILQQTNDVLAEILRVLQELEKQYAQ”, the entry is “not soluble”; as for “MSTIIMDLCSYTRLGLTGYLLSRGVKKREINDIETVDDLAIACDSQRPSVVFINEDCFIHDASNSQRIKLIINQHPNTLFIVFMAIANVHFDEYLLVRKNLLISSKSIKPESLDDILGDILKKETTITSFLNMPTLSLSRTESSMLRMWMAGQGTIQISDQMNIKAKTVSSHKGNIKRKIKTHNKQVIYHVVRLTDNVTNGIFVNMR”, “not soluble”. For the sequence “MSTNALQPKTIGGNNNILEVIRLKRADLRKSDRKVAELVLADPKRVINATIAEAAEWAEVSQPTVIRFCASIGCQGYQDFKLRLAQSLALGMSATHSVIDADDTPAKVSEKIFDYTITSLDWVRNHLDPVQVDRAVDALAKANRIEFFGFGASGIVARDAQQKFPLFGVPCGAETDAHQQIMVVSMLKPGDVAVVISNTGATLAIIETARRARESGCQVIGIVGSDGPLVEFCDIVLMVETLENTNIYTPTISRIAALTVVDILSTSVALRRGAEHVDLFTGMKRNLRYLRTSTET”, the “soluble on expression in E. coli” value was “not soluble”. As for “MSTQFKLPLASPLTHGREDFAVSPSNGEAVARLDAWPDWAEGRLVLVGPAGCGKSHLARAWAAAAGAVVVEAANPDAASVDLSALRGRAVLVEDADRRAQGAAVSDEALFHILNMAGVDGGTVLLTGRTAPLTWSAEVADLRSRLNALSVAEIAEPDDAVLEAVLRRAFAAAWWKPEPDLYPYLLARLPRSAAEAQAAAALLAEAAADGRRELTKALAREVLEGFEGDEGLEHHHHHH”, the entry is “not soluble”. As for “MSTSQTKNVSIDTIKEFMYQVLLKVGSDEENARMVRDTLIAADLRGMDTHGIQRFKTVYIDRIKKGMINPTAKPSIIRETSTTCVLDGNNGFGHVNGTIGMKMAIEKAKKYGMGMVVVRNSTHFGIAGYYSLLAAQEGCIGICGTNARSSVAATFGDEPILGTNPLAIGIPSDEAFPYCFDGATSISPTGRFEKYVRMGKTVDKSWASMKGGKPIEDPKELLENYPKGKAYLHPLGGSDEVSGSHKGYCLSEFVEIMSSCLSIANFLNHIEEEKEKSGKFSLGHFFIAINVECFRDLNEFKKNVGDINRTLRNTDKLPGHDRIYTAGEKEYETEQKRRKFGDDLPLVTINEMKELSSFYNVPLPF”, the “soluble on expression in E. coli” value is listed as “soluble”. As for “MSVEGLGKDFCGAIIPDNFFPIEKLRNYTQMGLIRDFAKGSAVIMPGEEITSMIFLVEGKIKLDIIFEDGSEKLLYYAGGNSLIGKLYPTGNNIYATAMEPTRTCWFSEKSLRTVFRTDEDMIFEIFKNYLTKVAYYARQVAEMNTYNPTIRILRLFYELCSSQGKRVGDTYEITMPLSQKSIGEITGVHHVTVSRVLACLKRENILDKKKNKIIVYNLGELKHLSEQTSYYSDPNSSSVDKLAAALDHH”, the entry is “soluble”; as for “MSVHESSNEINDEPMDTDSNIPESSGNDPSMEVDDEPESSDAADSFKRFERLLQKTENFSHCLSSGDAKLATGAPVDTKKRGRPSKKNGIDGDHRHRKTEQEEDEEMVADAIKSDDLVIFDKSPFYIENGEMRDYQVRGLNWLASLQHNKINGILADEMGLGKTLQTISMIGYMKHYKNKASPHLVIVPKSTLQNWANEFKKWCPSINAVVLIGDEAARNQVLRDVILPQKFDVCCTTYEMMLKVKTQLKKLNWRYIIIDEAHRIKNEKSKLSETVRELNSENRLLITGTPLQNNLHELWALLNFLLPDIFTSSDDFDSWFSNDAMSGNTDLVQRLHKVLQPFLLRRIKSDVEKSLLPKKEVKVYVGLSKMQREWYTKVLMKDIDIINGAGKVEKARLMNILMHLRKCVNHPYLFDGAEPGPPFTTDQHLVDNSGKMVVLDKLLMKFKEQGSRVLIFSQFSRMLDLLEDFCWWRHYEYCRLDGSTPHEDRSNAIEAYNAPDSKKFIFMLTTRAGGLGINLATADVVIIYDSDWNPQSDLQAMDRAHRIGQKKQVRVFRLITENTVDERIIEKAEAKLRLDNIVIQQGRMSEAQKTLGKGDMISMIRHGAEQVFAAKDSTISDDDIDTILEKAEVKTAELNEKMGKIDENNLRNMTFEDNAKFTVYQFEGENYKAKQADGMGHFWIEPPKRERKANYQVDLYYKEAMRAGNPTEKQSKAPRPKLPQVFDFQFYPRRLFELLDKEIYHYRKTIGYVAERPKDVPPKEAEKRQAEEQKLINNARPLTDKEQEEKAELLTQSVTDWTKREFQQFVRGNEKYGREDLESIAKEMERPLEEIQSYAKVFWERIEELQDSEKVLSQIEKGEARIQRKYAVKKALDAKIAKYKAPFQQLRISYGTNKGKTYTEEEDRFLVCETHRLGHDKENVFEELRQSVRMAPQFRFDWFLKSRTAMELQRRCNTLITLIEREMGEVVESKPVIVTAADKKKSVAKDLSKSSGTPTAKKVKATPK”, “not soluble”; as for “MSVIIVGGGMAGATLALAISRLSHGALPVHLIEATAPESHAHPGFDGRAIALAAGTCQQLARIGVWQSLADCATAITTVHVSDRGHAGFVTLAAEDYQLAALGQVVELHNVGQRLFALLRKAPGVMLHCPDRVANVARTQSHVEVTLESGEMLTGRVLIAADGTHSALATACGVDWQQEPYEQLAVIANVATSVAHEGRAFERFTQHGPLAMLPMSDGRCSLVWCHPLERREEVLSWSDEKFCRELQSAFGWRLGQITHAGKRSAYPLALTRAARPITHRTVLVGNAAQTLHPIAGQGFNLGMRDVMSLAETLTQAHERGEDIGDYGILCRYQQRRQSDREATIGVTDSLVHLFANRWAPLVVGRNIGLMTMELFTPARDVLAQRTLGWVARLEHHHHHH”, “soluble”. As for “MSVLDALWEDRDVRFDLSAQQMKTRPGEVLIDCLDSIEDTKGNNGDRGRLLVTNLRILWHSLALSRVNVSVGYNCILNITTRTANSKLRGQTEALYILTKCNSTRFEFIFTNLVPGSPRLFTSVMAVHRAYETSKMYRDFKLRSALIQNKQLRLLPQEHVYDKINGVWNLSSDQGNLGTFFITNVRIVWHANMNDSFNVSIPYLQIRSIKIRDSKFGLALVIESSQQSGGYVLGFKIDPVEKLQESVKEINSLHKVYSASPIFGVDYEMEEKPQPLEALTVEQIQDDVEIDSDGHTDAFVAYFADGNKQQDREPVFSEELGLAIEKLKDGFTLQGLWEVMS”, the entry is “soluble”; as for “MSVRLPLLLRQLGRQQLPSGPACRLRELCRSGSRSSSSGGGDPEGLRGRRLQDGQTFSSHGPGNPEAPGMDSIVRDVIHNSKEVLSLLQEKNPAFKPVLVVIQAGDDNLMKDMNQNLAKEAGLDITHICLPPDSGEDEIIDEILKINEDPRVHGLTLQISEDSLSNKVLNALKPEKDVDGVTDINLGKLVRGDAPECFVSPLAKAAVELVEKSGITLDGKKVLVVGAHGPLEAALQWLFQRKGFMTMSCPWAPPQLPDKLREADIVVLGSPKPEEIPAVWIPSGTTILNCFHDFLSGKLSGGSPGVPVDKLIAEESVSLLAAALRIQNMVSSGRRWLREQQHRRWRLHCLKLQPLSPVPSDIEISRGQTPKAVDVLAKEIGLLADEIEIYGKSKAKVQLSLLERLKDQTDGKYVLVAGITPTPLGEGKSTVTIGLVQALTAHLKVNSFACLRQPSQGPTFGVKGGAAGGGYAQVIPMEEFNLHLTGDIHAITAANNLLAAAIDTRILHESTQTDKALYNRLVPLVNGVREFSEIQLSRLKKLGIHKTDPSTLTEEEVRKFARLNIDPATITWQRVLDTNDRFLRKITIGQGSTEKGYSRQAQFDIAVASEIMAVLALTDSLTDMKERLGRMVVASDKDGQPVTAEDLGVTSALTVLMKDAIKPNLMQTLEGTPVFVHPGPFANIAHANSSVLTDKIALKFVGEEGFVVTEAGFGADIGMEKFFNIKCRASGLVPNVVVLVATVRALKMHVGGPSVTAGVPLKKEYTEENIQMVADGCCNLQKQIQIAQLFGVPVVVALNVFKTDTRAEIDLVCELAKRAGAFDAVPCYHWSAGGKGSVDLARAVREAANKRSRFQFLYDVQLPIVEKIRVIAQTVYGAKDIELSPEAQSKIDRYTQQGFGNLPICMAKTHLSLSHEPDKKGVPRDFTLPISDVRASIGAGFIYPLVGTMSTMPGLPTRPCFYDIDLDTETEQVKGLF”, “soluble”.
